Results on 14 sequences are retold here after a protein production outcome set (Wang et al. 2014).

A short description of this series: label from the status in PepcDB records.

As for “MSEVTRSLLQRWGASLRRGADFDSWGQLVEAIDEYQILARHLQKEAQAQHNNSEFTEEQKKTIGKIATCLELRSAALQSTQSQEEFKLEDLKKLEPILKNILTYNKEFPFDVQPI”, the protein production result is “not failed”.
Consider “MSEWRGFNRKGNTMKIRPGRHNAPDFPHGAAVTIGNFDGVHLGHKHILQKLRLEADARGLPVVAVVFEPQPKEFFALRTGKTPPCRISPLRTKLELLEGTGCVDAAWVLRFDRNFSEISAQAFIDRLLRQTLNTRYLLVGDDFRFGAGREGCFELLAQQPDMQTERTPSVIVEDIRTSSTAVRQALSDGNLAYAKKLLGHDYVLGGRVVHGRKLGRTLNAPTANIRLPGHRYALGGVFVVEADGAFGTRRGVASFGFNPTVDGGCSQKLEVHLFDFQGDLYGQRLNVRFLHKLRDEEKFDGMEELKRRIEADMEAAKCW”, for which the protein production entry was “not failed”.
As for “MSFASETKKELTNLEVKDCCAKAELSALIRMNGSLSFSNRKVVLDVQTENAAIARRIYTLLKKQYDVSVELLVRKKMRLKKNNVYIVRLIENAKPILEDLKILGDNFVIARNISEDLVKKRCCKRSYMRGAFLAGGSVNNPETSSYHLEIFSLYKEHNDSLCRLMNQFHLNSKTLERKKGYITYLKEAEKITEFLNVIGAHNSLLRFEDVRIVRDMRNSVNRLVNCETANLNKTIGASLRQVENIKLIDERIGLDALPEKLREIAQLRIDYQEVTLKELGEMVSSGKISKSGINHRLRKLDEIAEQLR”, the entry is “not failed”.
As for “MSFEAFTELYIRDVKNRLKENTWLTKEHIIRTKILPFFGKLKISEISTKEIITWQNEMLAYRDEKKKPYSQTYLKTLHNQLSAIFNHAVRYYELRSNPAAKVGNMGSELEHHHHHH”, the entry is “not failed”; as for “MSFKVISTGPQAIFQDRGRFGFASAGVGTSGSFDRLSAARANHALGNDPNATVVEILLGGFEVEALHTTSIVFTGTEAEVMVRTAGGQSKNATTNTIIDVAAGERIRVEPATYGMRAYFAARGGFAVEKTLGSASTDLISHMGPRPIEPGDVIDVATDIADSQWWPKLRQLPTLWKRMPTETLTVIRGPRDKWFTQESLNNFFTQVFTVSNDSNRIGLRMHSSEPIQHRVEGELKSEGMVRGSIQIPPGGNPVVFGPDHPVTGGYPVIAVLTSRSCDRSAQLLPGDKVRFKLL”, “failed”; as for “MSFRVSASSSVKPEKDIRIGLLGASGYTGAEIVRLLANHPHFQVTLMTADRKAGQSMESVFPHLRAQKLPTLVSVKDADFSTVDAVFCCLPHGTTQEIIKELPTALKIVDLSADFRLRNIAEYEEWYGQPHKAVELQKEVVYGLTEILREDIKKARLVANPGCYPTTIQLPLVPLLKANLIKHENIIIDAKSGVSGAGRGAKEANLYSEIAEGISSYGVTRHRHVPEIEQGLSDVAQSKVTVSFTPHLMPMIRGMQSTIYVEMAPGVRTEDLHQQLKTSYEDEEFVKVLDEGVVPRTHNVRGSNYCHMSVFPDRIPGRAIIISVIDNLVKGASGQALQNLNIMLGYPETTGLLHQPLFP”, “failed”.
As for “MSFSDHFSAVAASYAKARPRYPQRWFRYLARIVPDRQRVWDCATGNGQAAIALAEYFSEVIGSDASAAQVRQARSHPRVQYLVFPAEATPLAPASLDLITVAQAAHWFDLPQFYIEAQRLLRPGGVIALWGYGLGSLNPAIDHVFNHFYRDWLDPYWPPERQWVEQAYEGLSFPFEPLPTPTFSMQCDWTLFDLLAYLRTWSGVQQFQRQRGFDPVWAIAPELQRVWGDPQRYRRITWPLFAKVGRWQPLEHHHHHH”, the entry is “not failed”; as for “MSFSFLFILTAGMVAAFNPCGIALLPSYISYLIGGETKDHSFRYAIFKGLGLGGAMTTGFLTIFVLAGLLIGGLGSALTGIFPILSLVMGILIALLGLGMLFGKHLPIKIGSFQVKPGKWSIYFYGIAYAVTSLGCTLPAFMLVVSASLNDNSVTAVIIKFIIYSLGMGIVVTAITMVSLISRQLVQKFLHNYMGSIQKIAAVVIFLSGLYMAYYWYFGSGGICTF”, “failed”; as for “MSFVAYEELIKEGDTAILSLGHGAMVAVRVQRGAQTQTRHGVLRHSVDLIGRPFGSKVTCGRGGWVYVLHPTPELWTLNLPHRTQILYSTDIALITMMLELRPGSVVCESGTGSGSVSHAIIRTIAPTGHLHTVEFHQQRAEKAREEFQEHRVGRWVTVRTQDVCRSGFGVSHVADAVFLDIPSPWEAVGHAWDALKVEGGRFCSFSPCIEQVQRTCQALAARGFSELSTLEVLPQVYNVRTVSLPPPDLGTGTDGPAGSDTSPFRSGTPMKEAVGHTGYLTFATKTPG”, “not failed”.
For “MSFWRPRLGLLDASVLSFAVLPTDLDFNRHMTNARYLSLMDLGRLDLILRSGMWRLVLRQSLQPVIGGALVRFRHALRPFQPFRLTTRVLAWDARWLFIEHRVETLDGKPACTAVVRAAFVASTGMLPTADLLTRLGYGGAAPDVPAWIAPWLQADLACQPASPPLENPL”, the protein production entry is recorded as “failed”.
Regarding “MSGDMEATGWGYTHISVDSFCHKWTISNFSFCMDGIMETITSPKFSLKASDKVEWGLKVHPNGIDEESKNYLSVYLALLHCQKSPVWAKYEFWIINSQGEKYQSRKSTKVVSFHKNKYRGFKKFILRDFLFSNPHRLLPEDQLTLCCQVSIMGAFFKTPGQSITPAVPDPRHMMADDLGELWENSLCTDCCLLVAGQEFRAHKAILAARSPVFRAMFEHQMEERLTNRVDINGLDPKVFKEMMGFIYTGKAPHLHIHSMACDLLAAADRYGLEGLKVMCEDALCRNLSVENAAHTLILADLHNIEQLKTQALDFIALHASEVSENSEWKSMMESHPHLVAETFHSLASAQCFLEPSIKHLK”, the protein production result is recorded as “failed”.
On to “MSGFHYPGVPVTALLYSLWPLFALIVGGYALRRWDFPGEAFWPAAERLNYFILFPALLFSNLATAPLDDPGLARQALAVLLGLGVAWLALLLCKRWRGWDAGRFGAIAQGVLRFNTYLGLAAVGSLYGKPGLTLAALMLALMVPTVNVMSVWALTAERGISLRALLLPILKNPLILACLAGALVNLAGVGLPGGSDRLLNLLAVASLPLGLLCVGAALKPQELGGEVAALGWNCAARLLAMPLLAFAIARGLGLPSMESAVLVLFFALPTAPTAYVLTRQLGGDGHLMAGIITLQTLLSGATLVGVLLVLQGSP”, for which the protein production result was “failed”.
With “MSGFSPELIDYLEGKISFEEFERRREERKTREKKSLQEKGKLSAEENPDDSEVPSSSGINSTKSQDKDVNEGETSDGVRKSVHKVFASMLGENEDDEEEEEEEEEEEEEEETPEQPTAGDVFVLEMVLNRETKKMMKEKRPRSKLPRALRGLMGEANIRFARGEREEAILMCMEIIRQAPLAYEPFSTLAMIYEDQGDMEKSLQFELIAAHLNPSDTEEWVRLAEMSLEQDNIKQAIFCYTKALKYEPTNVRYLWERSSLYEQMGDHKMAMDGYRRILNLLSPSDGERFMQLARDMAKSYYEANDVTSAINIIDEAFSKHQGLVSMEDVNIAAELYISNKQYDKALEIITDFSGIVLEKKTSEEGTSEENKAPENVTCTIPDGVPIDITVKLMVCLVHLNILEPLNPLLTTLVEQNPEDMGDLYLDVAEAFLDVGEYNSALPLLSALVCSERYNLAVVWLRHAECLKALGYMERAAESYGKVVDLAPLHLDARISLSTLQQQLGQPEKALEALEPMYDPDTLAQDANAAQQELKLLLHRSTLLFSQGKMYGYVDTLLTMLAMLLKVAMNRAQVCLISSSKSGERHLYLIKVSRDKISDSNDQESANCDAKAIFAVLTSVLTKDDWWNLLLKAIYSLCDLSRFQEAELLVDSSLEYYSFYDDRQKRKELEYFGLSAAILDKNFRKAYNYIRIMVMENVNKPQLWNIFNQVTMHSQDVRHHRFCLRLMLKNPENHALCVLNGHNAFVSGSFKHALGQYVQAFRTHPDEPLYSFCIGLTFIHMASQKYVLRRHALIVQGFSFLNRYLSLRGPCQESFYNLGRGLHQLGLIHLAIHYYQKALELPPLVVEGIELDQLDLRRDIAYNLSLIYQSSGNTGMAQTLLYTYCSI”, the protein production result was “failed”.
As for “MSGGQQERHVLILNTVGGRRAIALEAAAYSLGRDESNAIVIDFETVSRQHAILLRVPVPGTTSYRYRLVDGNANGKPSTNGTFVNGKRISSHELQHGDVILFGRKAKASYLLLSMADTEFSQYLQSIAFQSIKSDLRGAKETLVGMELSGELRRTPNRELVAAGATQLHPELEPAKDTLSSESDSEPKGNNKETLHEKESQGSKTNLVALGAIALVVVAIIAGAVWRAGFSANPPQGSPPATPTRN”, the entry is “failed”.
